The target in data set [1] is recombinant human IL-8/CXCL8 (UniProt P10145).
For the next data set, the target named is T1, recombinant murine MIP-2 (UniProt P10889).
T1 sequence: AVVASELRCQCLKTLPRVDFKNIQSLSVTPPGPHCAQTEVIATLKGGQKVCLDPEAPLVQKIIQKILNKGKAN

Chain of recombinant human IL-8/CXCL8 (P10145 28-99): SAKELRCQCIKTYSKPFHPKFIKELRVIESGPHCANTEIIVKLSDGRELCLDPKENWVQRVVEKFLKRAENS

“trypsin-like GAS protease (chemokine protease released into the culture supernatant of GAS strain JS95)”: in data set [1], the “IL-8 degradation (Western blot)” value is recorded as “JS95 supernatant effectively degraded IL-8”. Further, the “MIP-2 degradation (dot blot)” value with recombinant murine MIP-2 was “The supernatant of JS95 degraded more than 80% of the recombinant MIP-2 protein”.

Values taken from US20070071773.
